Data on eight molecules can be found in patent US20240115722A1 (RUTGERS THE STATE UNIVERSITY OF NEW JERSEY, published 2024).

Assay [1] has as its target T1, human EPH receptor A5 (EphA5) expressed on cells (human, UniProt P54756 25-1037).
T1 construct: Cell line (H460 stably expressing EphA5; HEK-293T transfected with EPHA5 clone or wild-type construct; lung cancer lines with endogenous or variable expression); also called cell-surface EphA5; wild-type target protein
Briefly: flow cytometry on H460 (EphA5+) cells, starting assay concentration 10 µg/mL. How it is done:
Samples were prepared at a starting concentration of 10 μg/ml in FACS buffer and underwent a four-fold seven point serial dilution for testing with H460 cells and a three-fold three point serial dilution for the H226 cells. Cell pellets were resuspended in 100 μl of the serially diluted samples and incubated at 4° C. for 30 minutes. After the incubation, cells were pelleted, washed twice with 100 μl of FACS buffer and resuspended in either Alexa Fluor 647 anti-mouse or anti-human (Thermo Fisher) diluted to 5 μg/ml in FACS buffer. After incubation at 4° C. for 30 minutes, cells were pelleted, washed twice with 100 μl of FACS buffer and resuspended in 200 μl per well 1×BD CellFix solution (BD Pharmingen, Berkshire, UK). Median fluorescence intensity (MFI) was measured using an Attune NxT Flow Cytometer (Thermo Fisher, Loughborough, UK) and 10,000 gated events were acquired per sample. For data analysis, live cell populations were gated based on the forward and side scatter dot plot allowing the Alexa Fluor 647 MFI values to be measured in the RL1 channel.
(Flow cytometry measures light scatter and fluorescence of single cells or particles in a stream.)

The target of assay [2] is T2, recombinant human EphA5 (rhEphA5) antigen (human, UniProt P54756 25-573).
T2 construct: also called human EphA5 (R and D systems, Cat. No. 3036-A5); recombinant EphA5
T2 sequence (P54756 25-573 limits assumed): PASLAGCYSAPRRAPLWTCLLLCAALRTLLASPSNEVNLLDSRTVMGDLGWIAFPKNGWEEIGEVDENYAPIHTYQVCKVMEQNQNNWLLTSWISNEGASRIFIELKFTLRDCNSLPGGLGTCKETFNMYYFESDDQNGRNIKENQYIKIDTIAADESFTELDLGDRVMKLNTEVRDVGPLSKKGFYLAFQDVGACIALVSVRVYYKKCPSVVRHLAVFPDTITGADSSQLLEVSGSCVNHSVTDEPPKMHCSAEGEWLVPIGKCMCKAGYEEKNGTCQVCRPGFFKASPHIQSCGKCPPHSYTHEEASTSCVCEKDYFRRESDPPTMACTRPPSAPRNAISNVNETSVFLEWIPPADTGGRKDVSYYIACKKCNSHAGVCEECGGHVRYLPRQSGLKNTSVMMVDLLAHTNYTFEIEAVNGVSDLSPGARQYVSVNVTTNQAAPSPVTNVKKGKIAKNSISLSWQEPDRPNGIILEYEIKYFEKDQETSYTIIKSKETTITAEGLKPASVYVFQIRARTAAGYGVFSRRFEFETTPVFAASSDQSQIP
The assay is described as follows: SPR multi-cycle kinetics (Biacore T200), purified IgG captured on anti-human IgG CM5 chip, recombinant EphA5 as analyte, 1:1 fit. On the procedure:
HBS-P+(GE Healthcare, Uppsala, Sweden), supplemented with 1% BSA w/v (Sigma, Dorset, UK) was used as running buffer as well as for ligand and analyte dilutions. Purified lead antibodies were diluted to 0.5 μg/mL in running buffer and at the start of each cycle, loaded onto Fc2, Fc3 and Fc4 of an anti-human IgG CM5 sensor chip (GE Healthcare, Little Chalfont, UK). […] The surface was then allowed to stabilize.
Multi-cycle kinetic data was obtained using recombinant EphA5 as the analytes injected at a flow rate of 30 μl/min to minimize any potential mass transfer effects. […] For each concentration, the association phases were monitored for 210 seconds and the dissociation phase was measured for 900 seconds. Regeneration of the sensor chip surface was conducted between cycles using two injections of 3 M MgCl2. Multiple repeats of a blank and of EphA5 were programmed into the kinetic run in order to check the stability of both the surface and analyte over the kinetic cycles.
The signal from the reference channel Fc1 (no IgG captured) was subtracted from that of Fc2, Fc3 and Fc4 to correct for bulk effect and differences in non-specific binding to a reference surface. The signal from each IgG blank run (IgG captured but no antigen) was subtracted to correct for differences in surface stability. The double referenced sensorgrams were fitted with the Langmuir (1:1) binding model where the closeness of fit of the data to the model is evaluated using the Chi square value which describes the deviation between the experimental and fitted (observed and expected) curves. The fitting algorithm seeks to minimize the Chi square value.
(In SPR one partner is held on a chip, and binding of the other changes the refractive index at the surface.)

Assay [3] deals with T2, recombinant human EphA5 (rhEphA5) …. The assay is described as follows: SPR single-cycle kinetics (Biacore T200), IgG from HEK supernatant captured on anti-human IgG CM5 chip, rhEphA5 as analyte, 1:1 fit. More on the design: Relative KD: reference not given here. On the procedure: Kinetic analysis was carried out on a Biacore T200. Each antibody was captured on a CM5 chip coupled with an anti-human IgG using standard amine chemistry before increasing concentrations of antigen were injected and a single off-rate was determined.
Kinetic experiments were performed at 25° C. on a Biacore T200 running Biacore T200 Control software V2.0.1 and Evaluation software V3.0 (Cytiva, Uppsala, Sweden).
HBS-P+ (Cytiva, Uppsala, Sweden), supplemented with 1% BSA (Sigma, Dorset, UK) was used as running buffer as well as for ligand and analyte dilutions. Supernatants containing IgG were diluted in running buffer to 1 μg/mL. At the start of each cycle, antibodies were loaded onto Fc2, Fc3 and Fc4 of an anti-human IgG CM5 sensor chip (Cytiva, Little Chalfont, UK). Ig were captured at a flow rate of […] to give an immobilization level (RL) of ˜60 RU. The surface was then allowed to stabilize.

The target is the same in assay [4]. The assay is described as follows: SPR (Biacore T200), IgG captured on anti-human IgG chip, rhEphA5 as analyte, 1:1 fit; table does not say single- or multi-cycle.
In assay [5] the target is T1, human EPH receptor A5 (EphA5) expressed …. The assay is described as follows: flow cytometry on H460 (EphA5+) cells, goat anti-mouse Alexa Fluor 647 detection.
Assay [6] deals with T3, FCGR1A (human, UniProt P12314).
T3 construct: clone overexpressed in live cells from an expression plasmid; Labelled point above the threshold in the Membrane Proteome Array plots of both H4K3 and H5K3
T3 sequence (P12314 16-374 limits assumed): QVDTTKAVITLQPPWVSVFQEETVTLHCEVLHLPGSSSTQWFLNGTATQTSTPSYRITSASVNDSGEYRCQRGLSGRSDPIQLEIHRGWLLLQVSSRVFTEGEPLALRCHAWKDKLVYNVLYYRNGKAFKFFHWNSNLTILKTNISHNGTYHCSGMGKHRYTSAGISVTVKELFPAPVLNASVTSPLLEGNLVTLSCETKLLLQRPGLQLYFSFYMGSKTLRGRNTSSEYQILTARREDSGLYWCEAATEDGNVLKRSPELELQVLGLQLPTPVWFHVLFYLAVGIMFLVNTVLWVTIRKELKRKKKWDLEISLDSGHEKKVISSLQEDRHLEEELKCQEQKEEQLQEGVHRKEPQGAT
The assay is described as follows: Membrane Proteome Array screen, human membrane protein clones expressed in cells, flow cytometry (Table E4: HEK-293T, antibody 20 µg/ml).

Assay [7] addresses T3, FCGR1A. The assay is described as above. The source holds these as a separate data set.

The EC50 is the concentration that produces a half-maximal response. One may read the Kd as a measure of binding affinity in units of concentration. The koff is the first-order rate constant of dissociation. As a reminder, the kon is the second-order rate constant of association. What is called EC50 (read off the curve) is the concentration at which the effect is half-maximal.

Like-named read-outs stand apart in the source and are kept apart here.

T1 sequence (P54756 25-1037 limits assumed): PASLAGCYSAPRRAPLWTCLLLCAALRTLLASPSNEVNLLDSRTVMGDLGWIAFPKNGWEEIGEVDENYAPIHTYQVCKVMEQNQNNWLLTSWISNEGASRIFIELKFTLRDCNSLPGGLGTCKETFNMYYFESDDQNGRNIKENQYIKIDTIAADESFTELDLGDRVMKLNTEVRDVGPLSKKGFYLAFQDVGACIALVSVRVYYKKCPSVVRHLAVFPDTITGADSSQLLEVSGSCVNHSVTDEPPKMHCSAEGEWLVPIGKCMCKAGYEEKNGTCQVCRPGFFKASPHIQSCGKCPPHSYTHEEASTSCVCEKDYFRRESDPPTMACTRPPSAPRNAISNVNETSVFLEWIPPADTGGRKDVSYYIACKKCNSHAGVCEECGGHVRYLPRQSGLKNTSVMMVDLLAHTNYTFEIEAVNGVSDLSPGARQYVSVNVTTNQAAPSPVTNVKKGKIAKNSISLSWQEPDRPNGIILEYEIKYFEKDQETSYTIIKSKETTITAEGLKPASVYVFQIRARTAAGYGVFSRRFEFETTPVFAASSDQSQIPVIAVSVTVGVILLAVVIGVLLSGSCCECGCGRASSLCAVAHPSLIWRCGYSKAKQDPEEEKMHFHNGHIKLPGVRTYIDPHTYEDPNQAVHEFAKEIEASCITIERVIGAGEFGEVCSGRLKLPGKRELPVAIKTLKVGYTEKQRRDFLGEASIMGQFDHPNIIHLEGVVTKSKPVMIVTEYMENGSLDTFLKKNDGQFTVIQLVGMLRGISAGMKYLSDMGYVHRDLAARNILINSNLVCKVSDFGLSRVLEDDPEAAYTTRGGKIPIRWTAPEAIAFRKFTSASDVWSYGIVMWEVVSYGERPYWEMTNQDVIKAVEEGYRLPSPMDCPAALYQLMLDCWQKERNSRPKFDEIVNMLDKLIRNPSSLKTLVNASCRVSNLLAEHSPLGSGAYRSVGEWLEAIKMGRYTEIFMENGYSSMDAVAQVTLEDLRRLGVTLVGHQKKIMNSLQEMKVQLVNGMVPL

B1: VH4/VK4 humanized 11C12 antibody (antibody, human IgG1, kappa, V domains shown)
VH: EVQLVESGGGLVQPGGSLKLSCAASGFTFSTFGIHWVRQAPGKGLEWVAYISGASTTIYYADTVKGRFTISRDNSKNTLYLQMNSLRAEDTAVYYCARYGTSFPYGLDYWGQGTLVTVSS
VL: DIVMTQSPDSLAVSLGERATINCKSSQSVDYDGDSYMNWYQQKPGKAPKLLIYGASNLESGIPDRFSGSGSGTDFTLTISRLEPEDAASYYCQQSNEDPFTFGQGTKLEIKR
notes: Human IgG1/kappa; lead variant, tested as HEK supernatant and as protein purified from CHO; also called H4K4
With B1, in assay [1], it took 0.017 µg/mL to reach a half-maximal effect (EC50) and the “Max. Binding (MFI)” value is 37500 MFI. Moreover, in assay [2], the Kd turned out to be 1.04 nM, the “Relative KD” value amounted to 0.67 and the off-rate constant (koff) was 0.00132 s⁻¹. Moreover, in assay [3], the dissociation constant Kd was 1.05 nM, the “Relative KD” value was found to be 0.79 and the koff came to 0.0014 s⁻¹.

B2: chimeric VH0/VK0 antibody (murine 11C12 variable regions, human IgG1/kappa constant regions) (antibody, V domains shown)
VH: EVTLKESGGGLVQPGGSRKLSCAASGFTFSTFGIHWVRQAPEKGLEWVAYISGASTTIYYADTVKGRFTISRDNPKNTLFLQMTSLRSEDTAMYYCARYGTSFPYGLDYWGQGTSVTVSS
VL: DIVMTQSPGSLAVSLGQRATISCKASQSVDYDGDSYMNWYQQKPGQPPKLLIYGASNLESGIPARFSGSGSGTDFTLNIHPVEEEDAASYYCQQSNEDPFTFGSGTKLEIKR
notes: also called chimeric antibody
As to B2, in assay [1], the EC50 amounted to 0.015 µg/mL and the “Max. Binding (MFI)” value was 35400 MFI. For the same molecule, in assay [4], the equilibrium dissociation constant (Kd) stood at 1.56 nM, the koff worked out at 0.0015 s⁻¹ and the kon is 965000 M⁻¹ s⁻¹. In assay [3], the dissociation constant Kd is 1.33 nM, the “Relative KD” value was determined as 1 and the off-rate (koff) amounted to 0.00153 s⁻¹.

B3: anti-human EphA5 monoclonal murine antibody 11C12 (antibody, V domains shown)
VH: EVTLKESGGGLVQPGGSRKLSCAASGFTFSTFGIHWVRQAPEKGLEWVAYISGASTTIYYADTVKGRFTISRDNPKNTLFLQMTSLRSEDTAMYYCARYGTSFPYGLDYWGQGTSVTVSS
VL: DIVMTQSPGSLAVSLGQRATISCKASQSVDYDGDSYMNWYQQKPGQPPKLLIYGASNLESGIPARFSGSGSGTDFTLNIHPVEEEDAASYYCQQSNEDPFTFGSGTKLEIK
notes: Full murine antibody; also called murine 11C12; mouse 11C12
For B3, in assay [1], a half-maximal effect (EC50) was put at 0.025 µg/mL and the “Max. Binding (MFI)” value stood at 27300 MFI. In addition, the “EC50 (read off the curve)” value in assay [5] is around 0.05 µg/mL.

B4: VH3/VK4 humanized 11C12 antibody (antibody, human IgG1, kappa)
heavy: not shown
light: DIVMTQSPDSLAVSLGERATINCKSSQSVDYDGDSYMNWYQQKPGKAPKLLIYGASNLESGIPDRFSGSGSGTDFTLTISRLEPEDAASYYCQQSNEDPFTFGQGTKLEIKRTVAAPSVFIFPPSDEQLKSGTASVVCLLNNFYPREAKVQWKVDNALQSGNSQESVTEQDSKDSTYSLSSTLTLSKADYEKHKVYACEVTHQGLSSPVTKSFNRGEC
notes: Human IgG1/kappa; lead variant, tested as HEK supernatant and as protein purified from CHO; also called H3K4
As to B4, in assay [1], a half-maximal effect (EC50) was put at 0.018 µg/mL and the “Max. Binding (MFI)” value was determined as 36500 MFI. For the same molecule, in assay [2], the Kd came out at 1.08 nM, the “Relative KD” value came to 0.69 and the koff turned out to be 0.00142 s⁻¹. Also, in assay [3], the dissociation constant Kd came out at 0.956 nM, the “Relative KD” value turned out to be 0.72 and the dissociation rate constant (koff) is 0.00128 s⁻¹.

B5: VH5/VK2 humanized 11C12 antibody (antibody, human IgG1, kappa, V domains shown)
VH: EVQLVESGGGLVQPGGSLKLSCAASGFTFSTFGIHWVRQAPGKGLEWVAYISGASTTIYYADSVKGRFTISRDNSKNTLYLQMNSLRAEDTAVYYCARYGTSFPYGLDYWGQGTLVTVSS
VL: DIVMTQSPDSLAVSLGERATINCKASQSVDYDGDSYMNWYQQKPGKAPKLLIYGASNLESGIPDRFSGSGSGTDFTLTISRLEPEDAASYYCQQSNEDPFTFGQGTKLEIKR
notes: Human IgG1/kappa; lead variant, tested as HEK supernatant and as protein purified from CHO; also called H5K2
With B5, in assay [1], the EC50 stood at 0.017 µg/mL and the “Max. Binding (MFI)” value is 36900 MFI. Moreover, in assay [2], the Kd was found to be 0.934 nM, the “Relative KD” value was 0.6 and the koff is 0.00125 s⁻¹. In addition, in assay [3], the Kd was determined as 0.892 nM, the “Relative KD” value turned out to be 0.67 and the off-rate (koff) amounted to 0.00123 s⁻¹.

B6: VH5/VK4 humanized 11C12 antibody (antibody, human IgG1, kappa, V domains shown)
VH: EVQLVESGGGLVQPGGSLKLSCAASGFTFSTFGIHWVRQAPGKGLEWVAYISGASTTIYYADSVKGRFTISRDNSKNTLYLQMNSLRAEDTAVYYCARYGTSFPYGLDYWGQGTLVTVSS
VL: DIVMTQSPDSLAVSLGERATINCKSSQSVDYDGDSYMNWYQQKPGKAPKLLIYGASNLESGIPDRFSGSGSGTDFTLTISRLEPEDAASYYCQQSNEDPFTFGQGTKLEIKR
notes: Human IgG1/kappa; lead variant, tested as HEK supernatant and as protein purified from CHO; also called H5K4
In the case of B6, in assay [1], it took 0.018 µg/mL to reach a half-maximal effect (EC50) and the “Max. Binding (MFI)” value stood at 35900 MFI. In assay [2], the Kd was 1.04 nM, the “Relative KD” value came out at 0.67 and the off-rate (koff) was found to be 0.00128 s⁻¹. Besides, in assay [3], the Kd was found to be 1.04 nM, the “Relative KD” value came to 0.78 and the koff was 0.00141 s⁻¹.

B7: VH4/VK3 humanized 11C12 antibody (antibody, human IgG1, kappa)
heavy: not shown
light: DIVMTQSPDSLAVSLGERATINCKASQSVDYDGDSYMNWYQQKPGKAPKLLIYGASNLESGIPDRFSGSGSGTDFTLTISRLEPEDAAVYYCQQSNEDPFTFGQGTKLEIKRTVAAPSVFIFPPSDEQLKSGTASVVCLLNNFYPREAKVQWKVDNALQSGNSQESVTEQDSKDSTYSLSSTLTLSKADYEKHKVYACEVTHQGLSSPVTKSFNRGEC
notes: Human IgG1/kappa; lead variant, tested as HEK supernatant and as purified protein; also called H4K3; EPHA5 H4K3
Take B7: the binding result with FCGR1A [6] is “binds”. For the same molecule, in assay [1], a half-maximal response (EC50) required 0.018 µg/mL and the “Max. Binding (MFI)” value was 36700 MFI. Also, in assay [2], the Kd stood at 0.937 nM, the “Relative KD” value was determined as 0.6 and the koff turned out to be 0.00139 s⁻¹. Also, in assay [3], the Kd is 1.04 nM, the “Relative KD” value was 0.78 and the koff stood at 0.00137 s⁻¹.

B8: VH5/VK3 humanized 11C12 antibody (antibody, human IgG1, kappa)
heavy: not shown
light: DIVMTQSPDSLAVSLGERATINCKASQSVDYDGDSYMNWYQQKPGKAPKLLIYGASNLESGIPDRFSGSGSGTDFTLTISRLEPEDAAVYYCQQSNEDPFTFGQGTKLEIKRTVAAPSVFIFPPSDEQLKSGTASVVCLLNNFYPREAKVQWKVDNALQSGNSQESVTEQDSKDSTYSLSSTLTLSKADYEKHKVYACEVTHQGLSSPVTKSFNRGEC
notes: Human IgG1/kappa; lead variant, tested as HEK supernatant and as purified protein; also called H5K3; EPHA5 H5K3
In the case of B8, in assay [1], the midpoint of the response, the EC50, lay at 0.019 µg/mL and the “Max. Binding (MFI)” value was 36500 MFI. In assay [4], the Kd worked out at 1.11 nM, the koff turned out to be 0.00135 s⁻¹ and the kon was determined as 1.21e+06 M⁻¹ s⁻¹. Also, the binding result with FCGR1A [7] is reported as “binds”. In assay [3], the equilibrium dissociation constant (Kd) is 1.03 nM, the “Relative KD” value came out at 0.77 and the koff is 0.0014 s⁻¹.
